In US8614103B2, “Compositions and methods for treating sphingosine-1-phosphate (S1P) related ocular diseases and conditions” (Lpath, Inc., priority 2006, dated 2013):

Assays:
[1] = test system: endothelial cell (EC) infiltration; test: In vivo Matrigel plug assay, S1P plugs, EC infiltration; parameters: species or system mouse; details: systemic administration every 48 hrs
Protocol: Based on in vivo studies showing that S1P increased endothelial capillary growth into subcutaneously implanted Matrigel plugs, we speculated that SPHINGOMAB could reduce de novo BV formation in vivo. To investigate this, we employed the in vivo Matrigel Plug assay for neovascularization. In one set of experiments, Matrigel was supplemented with either 1 μM S1P, 0.5 μg/mL bFGF or 1 μg/mL VEGF and then […]. into mice (n=4). After 10 days, the mice were heparinized and injected with the fluorescent lectin, Isolectin B4-FITC, which binds to adhesion molecules expressed by vascular EC that form the growing BVs. The plugs were then excised, frozen in OCT, sectioned and viewed for FITC-stained BVs.
Sections of the plugs were then stained with hemotoxyln & eosin for evaluation of EC infiltration (FIG. 6B). The infiltration of ECs is a critical step in neo-vascularization. […] Cell infiltration is presumed to be ECs although we recognize that other cell types such as immune cells may also be stained.

[2] = Stability after thermochallenge (TM); type: physicochemical; details: thermochallenge of supernatants
Protocol: The humanized variants were tested for stability after challenge at high temperature. The approximate midpoints of the thermal unfolding transitions (TM) were determined for every humanized variant by subjecting the supernatants to temperatures ranging from 60 to 74° C. These temperatures were chosen based on the denaturation profile observed for the murine antibody molecule after thermochallenging between a broad range of temperatures between 50 and 80° C. The binding properties of each variant were determined before and after thermochallenge.

[3] = test system: HUVECs; test: HUVEC migration, Matrigel chemoinvasion assay; type: cell-based, human; details: co-incubation with S1P
Protocol: FIG. 5 has two panels, A and B. In panel A, S1P is shown to promote neovascularization through induction of HUVECs tube formation and migration, which is reduced by SPHINGOMAB. […] The number of cells that migrated to the Matrigel membrane were counted in five independent fields.
Experiments were performed as described by Visentin et al. (Cancer Cell 2006 March; 9(3):225-38).

[4] = test system: ovarian cancer (OVCAR3) cells; test: S1P-induced IL-8 release; type: cell-based, human; details: 1 uM S1P; 22 hours
Protocol: FIG. 12 has two panels, A and B, that show data from in vitro cell assays performed using several humanized monoclonal antibody variants. […] As described in Example 16, below, SKOV3 cells were treated for 48 hr. with 500 nM Taxol (Tax) in the presence or absence of 500 nM S1P with huMAbHCLC3 (309), huMAbHCLC5 (308), muMAb S1P (muMAb), or non-specific IgG1 (NS) at a concentration of 1 μg/mL. Values represent means±SEM (n=3) with triplicates run for each data point. “NT” means not treated, and “Veh” stans for vehicle only. […] In the experiments described in detail in Example 16, below, 100,000 OVCAR3 cells/well were starved overnight and 1 uM S1P was added to the culture media alone or pre-incubated with 1 ug/ml of non-specific antibody (NS), pATH201+pATH309 (LC3), pATH201+pATH308 (LC5), pATH207+pATH309 (cysLC3), pATH207+pATH308 (cysLC5), and 0.1 ug/ml (M0.1), 1 ug/ml (M1) or 10 ug/ml (M10) of anti-S1P murine antibody. After 22 hours of incubation, cell supernatants were collected and IL-8 secretion was measured by ELISA using an R&D system Quantikine human CXCL8/IL-8 kit. In the figure “NT” refers to non-treated cells.
In parallel, all the variants were tested for their effects on S1P-induced cytokine release from cancer cells. S1P is known to elicit significant release of IL-8 into the cell-conditioned media from cancer cells.

[5] = Competitive ELISA for specificity / cross-reactivity against bioactive lipids; type: binding; details: for cross-reactivity to sphingosylphosphorylcholine (SPC): competitor SPC
Protocol: Screening of serum and cell supernatant for S1P-specific antibodies was by direct ELISA using a thiolated SIP analog as the antigen. A standard ELISA was performed, as described below, except that 50 ul of sample (serum or cell supernatant) was diluted with an equal volume of PBS/0.1% Tween-20 (PBST) during the primary incubation. ELISAs were performed in 96-well high binding ELISA plates (Costar) coated with 0.1 μg of chemically-synthesized thiolated-S1P conjugated to BSA in binding buffer (33.6 mM Na2CO3, 100 mM NaHCO3; pH 9.5). The thiolated-S1P-BSA was incubated at 37° C. for 1 hr. at 4° C. overnight in the ELISA plate wells. The plates were then washed four times with PBS (137 mM NaCl, 2.68 mM KCl, 10.14 mM Na2HPO4, 1.76 mM KH2PO4; pH 7.4) and blocked with PBST for 1 hr. at room temperature. For the primary incubation step, 75 uL of the sample (containing the S1P to be measured), was incubated with 25 uL of 0.1 ug/mL anti-S1P mAb diluted in PBST and added to a well of the ELISA plate. Each sample was performed in triplicate wells. Following a 1 hr. incubation at room temperature, the ELISA plates were washed four times with PBS and incubated with 100 ul per well of 0.1 ug/mL HRP goat anti-mouse secondary (Jackson Immunoresearch) for 1 hr. at room temperature. Plates were then washed four times with PBS and exposed to tetramethylbenzidine (Sigma) for 1-10 minutes. The detection reaction was stopped by the addition of an equal volume of 1M H2SO4. Optical density of the samples was determined by measurement at 450 nm using an EL-X-800 ELISA plate reader (Bio-Tech).
For cross reactivity, a competitive ELISA was performed as described above, except for the following alterations. The primary incubation consisted of the competitor (S1P, SPH, LPA, etc.) and a biotin-conjugated anti-S1P mAb. Biotinylation of the purified monoclonal antibody was performed using the EZ-Link Sulfo-NHS-Biotinylation kit (Pierce). Biotin incorporation was determined as per kit protocol and ranged from 7 to 11 biotin molecules per antibody. The competitor was prepared as follows: lipid stocks were sonicated and dried under argon before reconstitution in DPBS/BSA [1 mg/ml fatty acid free BSA (Calbiochem) in DPBS (Invitrogen 14040-133)]. Purified anti-S1P mAb was diluted as necessary in PBS/0.5% Triton X-100. Competitor and antibody solutions were mixed together so to generate 3 parts competitor to 1 part antibody. A HRP-conjugated streptavidin secondary antibody (Jackson Immunoresearch) was used to generate signal.
The humanized variants were tested for specificity in a competitive ELISA assay (FIG. 1) against S1P and several other biolipids. This assay has the added benefit to allow for epitope mapping.

B1: LT1002: murine monoclonal antibody to S1P, IgG1 kappa, hybridoma clone 306D326.26 (antibody, listed as Mus sp., V domains shown)
VH: QAHLQQSDAELVKPGASVKISCKVSGFIFIDHTIHWMKQRPEQGLEWIGCISPRHDITKYNEMFRGKATLTADKSSTTAYIQVNSLTFEDSAVYFCARGGFYGSTIWFDFWGQGTTLTVS
VL: ETTVTQSPASLSMAIGEKVTIRCITTTDIDDDMNWFQQKPGEPPNLLISEGNILRPGVPSRFSSSGYGTDFLFTIENMLSEDVADYYCLQSDNLPFTFGSGTKLEIK
EC infiltration into S1P Matrigel plugs [1]: reduced amount of EC infiltration | TM (approximate midpoint of the thermal unfolding transition) [2]: 65 °C | effect on S1P-promoted HUVEC migration and BV formation [3]: neutralize these effects of S1P | reduction of S1P-induced IL-8 release [4]: reduced IL-8 release from ovarian cancer cells in a concentration-dependent manner | Specificity (ELISA) ([5]; Table 7): High | recognition of ceramide-1-phosphate (C1P) ([5]; competitor C1P, listed as anti-S1P mAb): no antibody binding was observed | cross-reactivity to dihydrosphingosine-1-phosphate (DH-S1P) ([5]; competitor DH-S1P): did cross react | cross-reactivity to lysophosphatidic acid (LPA) ([5]; competitor LPA, listed as anti-S1P mAb): exhibited no binding | cross-reactivity to sphingosylphosphorylcholine (SPC) ([5]; listed as SPHINGOMAB): to a lesser extent | cross-reactivity to sphingosylphosphorylcholine (SPC) ([5]; listed as anti-S1P mAb): binding was somewhat reduced
